Results: patent US20140288007A1

T1: recombinant RgpB propeptide, P95493
T1 chain: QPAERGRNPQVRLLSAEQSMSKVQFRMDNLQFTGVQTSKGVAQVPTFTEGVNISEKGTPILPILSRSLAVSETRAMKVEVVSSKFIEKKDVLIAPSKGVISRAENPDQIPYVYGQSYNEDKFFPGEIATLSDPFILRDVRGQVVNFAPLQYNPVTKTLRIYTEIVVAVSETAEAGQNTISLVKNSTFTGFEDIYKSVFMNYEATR


Columns and labels:
[1] = target: RgpB (mature Arg-gingipain purified from P. gingivalis HG66) (Porphyromonas gingivalis) (UniProt P95493); assay: cell-based or functional assay
[2] = target: caspase 3; assay: cell-based or functional assay
[3] = target: papain (UniProt P00784); assay: cell-based or functional assay
Chain of UniProt P00784 (P00784 134-345 limits assumed): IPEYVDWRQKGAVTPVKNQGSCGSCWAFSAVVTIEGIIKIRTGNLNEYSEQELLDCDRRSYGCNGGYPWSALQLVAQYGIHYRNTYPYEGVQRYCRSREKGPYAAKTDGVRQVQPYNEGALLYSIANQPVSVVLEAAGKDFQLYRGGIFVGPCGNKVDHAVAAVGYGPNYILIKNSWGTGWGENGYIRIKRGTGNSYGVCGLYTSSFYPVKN

[4] = target: Kgp on P. gingivalis W50 whole cells (Lys-specific activity, GPKNa substrate) (Porphyromonas gingivalis) (UniProt Q51817); assay: cell-based or functional assay
[5] = target: RgpB (mature Arg-gingipain purified from P. gingivalis HG66) (Porphyromonas gingivalis) (UniProt P95493); assay: enzyme inhibition kinetics (non-competitive, Ki′), chromogenic substrate BapNA, secondary plot of Vmax observed against inhibitor concentration
[6] = target: Whole cell W50 (proteolytic activity on BapNa substrate); assay: cell-based or functional assay
[7] = target: T1, recombinant RgpB propeptide, P95493

Molecule | % Proteolytic Activity (BapNa; inhibitor 50 mg/L) [1] [%] | % Proteolytic Activity (Ac-DEVD-pNa 200 uM; inhibitor 100 mg/L) [2] [%] | % Proteolytic Activity (BapNa; inhibitor 40 mg/L) [3] [%] | % Proteolytic Activity (whole cells, GPKNa; inhibitor 40 mg/L) [4] [%] | % Proteolytic Activity (whole cells, GPKNa; inhibitor 80 mg/L) [4] [%] | Ki [5] [nM] | % Proteolytic Activity (whole cells, BapNa; inhibitor 40 mg/L) [6] [%] | % Proteolytic Activity (whole cells, BapNa; inhibitor 80 mg/L) [6] [%] | inhibition of RgpB activity, DQ BSA, 2 h incubation [1] [%] | RgpB proteolytic activity, DQ-BSA fluorescent substrate, 11 h time course [7]
recombinant Kgp propeptide (from UniProt Q51817 25-1732) | 105 | 121 | 88 | 65 | 40 | – | – | – | – | –
recombinant RgpB propeptide (from UniProt P95493 25-229) | – | 129 | 68 | – | – | 11.8 | 68 | 59 | 50 | –
RgpB (mature Arg-gingipain purified from P. gingivalis HG66) (protein) YTPVEEKENGRMIVIVPKKYEEDIEDFVDWKNQRGLRTEVKVAEDIASPVTANAIQQFVKQEYEKEGNDLTYVLLVGDHKDIPAKITPGIKSDQVYGQIVGNDHYNEVFIGRFSCESKEDLKTQIDRTIHYERNITTEDKWLGQALCIASAEGGPSADNGESDIQHENIIANLLTQYGYTKIIKCYDPGVTPKNIIDAFNGGISLANYTGHGSETAWGTSHFGTTHVKQLTNSNQLPFIFDVACVNGDFLYNVPCFAEALMRAQKDGKPTGTVAIIASTINQSWASPMRGQDEMNEILCEKHPNNIKRTFGGVTMNGMFAMVEKYKKDGEKMLDTWTVFGDPSLLVRTLVPTKMQVTAPANISASAQTFEVACDYNGAIATLSDDGDMVGTAIVKDGKAIIKLNESIADETNLTLTVVGYNKVTVIKDVKVEGTSIADVANDKPYTVAVSGKTITVESPAAGLTIFDMNGRRVATAKNRMVFEAQNGVYAVRIATEGKTYTEKVIVK | – | – | – | – | – | – | – | – | – | Addition of 10 mg/L (0.44 µM) or 20 mg/L (0.88 µM) RgpB propeptide resulted in near total inhibition of RgpB proteolytic activity
